Test results as given in US20150307628.
Numbering of substitutions follows the chain as printed. Names may count otherwise.

T1: dummy-Fc heavy chain constant region with CH3B of mutant EW-RVT (S-S) (Q347R/S354C/D399V/F405T)
T1 chain: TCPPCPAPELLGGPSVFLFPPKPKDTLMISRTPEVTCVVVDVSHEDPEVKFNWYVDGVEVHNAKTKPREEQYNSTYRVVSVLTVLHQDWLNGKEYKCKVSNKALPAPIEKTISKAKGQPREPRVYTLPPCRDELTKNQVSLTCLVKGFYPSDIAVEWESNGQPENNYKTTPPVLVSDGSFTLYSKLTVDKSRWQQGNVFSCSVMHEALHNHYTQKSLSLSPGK

T2: dummy-Fc heavy chain constant region with CH3B of mutant EEW-RVT (Q347R/D399V/F405T)
T2 chain: T1 chain with C130S

T3: dummy-Fc heavy chain constant region with CH3B of mutant SW-WVT (S-S) (Y349C/E357W/D399V/F405T)
T3 chain: T1 chain with R123Q, Y125C, C130S, E133W

B1: hAY4a scFv-Fc heavy chain with CH3A of mutant EW-RVT (S-S) (Y349C/K360E/K409W) (protein)
chain: T1 chain with R123Q, Y125C, C130S, K136E, V175D, T181F, K185W
B2: dummy-Fc heavy chain constant region with CH3B of mutant EW-RVT (Q347R/D399V/F405T) (protein)
chain: T1 chain with C130S
B3: hAY4a scFv-Fc heavy chain with CH3A of mutant EEW-RVT (Q347E/K360E/K409W) (protein)
chain: T1 chain with R123E, C130S, K136E, V175D, T181F, K185W
B4: dummy-Fc heavy chain constant region with CH3B of mutant EW-RVT (S-S) (Q347R/S354C/D399V/F405T) (protein)
chain: T1 chain
B5: dummy-Fc heavy chain constant region with CH3B of mutant SW-WVT (E357W/D399V/F405T) (protein)
chain: T1 chain with R123Q, C130S, E133W
B6: hAY4a scFv-Fc heavy chain with CH3A of mutant SW-WVT (S-S) (Y349S/S354C/K409W) (protein)
chain: T1 chain with R123Q, Y125S, V175D, T181F, K185W
B7: dummy-Fc heavy chain constant region with CH3B of mutant SW-WVT (S-S) (Y349C/E357W/D399V/F405T) (protein)
chain: T1 chain with R123Q, Y125C, C130S, E133W
B8: dummy-Fc heavy chain constant region with CH3B of mutant EEW-RVT (Q347R/D399V/F405T) (protein)
chain: T1 chain with C130S

Tests used:
[1] = molecular target: T1, dummy-Fc heavy chain constant region …; experiment: co-expression in HEK293F, protein A purification, non-reducing SDS-PAGE, band density (ImageJ); mean ± S.E.M.
[2] = as above
[3] = molecular target: T2, dummy-Fc heavy chain constant region …; experiment: as above
[4] = molecular target: T2, dummy-Fc heavy chain constant region …; experiment: repeated expression and purification, SDS-PAGE band density (ImageJ)
[5] = molecular target: T3, dummy-Fc heavy chain constant region …; experiment: co-expression in HEK293F, protein A purification, non-reducing SDS-PAGE, band density (ImageJ); mean ± S.E.M.

| Protein | Heterodimer yields, BB Homodimer (CH3B:CH3B) (Fc)2 [2] | further results |
| --- | --- | --- |
| B1 |  | Heterodimer yields, AB Heterodimer (CH3A:CH3B) (scFv-Fc)(Fc) [1]: 94.2%; Heterodimer yields, AA Homodimer (CH3A:CH3A) (scFv-Fc)2 [2]: 0.6% |
| B2 | 1.6% |  |
| B3 |  | Heterodimer yields, AB Heterodimer (CH3A:CH3B) (scFv-Fc)(Fc) [3]: 90.9%; yield of formation of the heterodimer [4]: about 90 to 95% |
| B4 | 2.2% |  |
| B5 | 1.7% |  |
| B6 |  | Heterodimer yields, AB Heterodimer (CH3A:CH3B) (scFv-Fc)(Fc) [5]: 98.6% |
| B7 | 0.8% |  |
| B8 | 6.3% |  |
